Measurements as given in article PMC4863622.

Molecular target: human Toll-like receptor 5, V5-tagged (hTLR5-V5) (human) (UniProt O60602)
Sequence of UniProt O60602 (O60602 21-858): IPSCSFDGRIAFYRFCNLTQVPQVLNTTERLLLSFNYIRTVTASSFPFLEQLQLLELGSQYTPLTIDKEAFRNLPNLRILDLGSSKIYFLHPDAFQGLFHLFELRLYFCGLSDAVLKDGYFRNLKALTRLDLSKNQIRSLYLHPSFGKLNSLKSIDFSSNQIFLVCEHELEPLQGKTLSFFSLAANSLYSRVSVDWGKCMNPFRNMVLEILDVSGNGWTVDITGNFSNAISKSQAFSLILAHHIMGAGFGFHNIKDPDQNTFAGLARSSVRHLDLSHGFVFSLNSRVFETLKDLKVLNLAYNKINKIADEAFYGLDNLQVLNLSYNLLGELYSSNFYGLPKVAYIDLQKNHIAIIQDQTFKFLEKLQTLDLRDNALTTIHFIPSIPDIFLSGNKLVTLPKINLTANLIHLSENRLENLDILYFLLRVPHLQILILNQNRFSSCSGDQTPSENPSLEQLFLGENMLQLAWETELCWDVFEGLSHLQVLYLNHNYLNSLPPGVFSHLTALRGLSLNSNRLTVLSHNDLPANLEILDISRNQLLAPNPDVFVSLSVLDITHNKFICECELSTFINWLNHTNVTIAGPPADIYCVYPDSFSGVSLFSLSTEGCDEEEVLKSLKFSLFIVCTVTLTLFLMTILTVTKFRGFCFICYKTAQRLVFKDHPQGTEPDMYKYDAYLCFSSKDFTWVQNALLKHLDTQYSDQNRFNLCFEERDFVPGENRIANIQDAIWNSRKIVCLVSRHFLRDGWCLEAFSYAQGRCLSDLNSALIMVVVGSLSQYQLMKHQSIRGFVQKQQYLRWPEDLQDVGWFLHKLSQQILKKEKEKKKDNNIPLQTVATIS

**Q.** Which IL-10 mRNA (quantitative RT-PCR) in hTLR5-transfected HEK293 cells, against the hTLR5 control (data not shown) does the source give for “Campylobacter jejuni FlaC, recombinant 6×His-FlaC–6×His (from UniProt P96747 1-249) (natural protein)” here?
**A.** Its IL-10 mRNA (quantitative RT-PCR) in hTLR5-transfected HEK293 cells, against the hTLR5 control (data not shown) is 6 fold.
